B1: RssB, full-length, untagged, overexpressed in lysate [E. coli] / His6-IraP [E. coli] (parent)
chain 1: MTQPLVGKQILIVEDEQVFRSLLDSWFSSLGATTVLAADGVDALELLGGFTPDLMICDIAMPRMNGLKLLEHIRNRGDQTPVLVISATENMADIAKALRLGVEDVLLKPVKDLNRLREMVFACLYPSMFNSRVEEEERLFRDWDAMVDNPAAAAKLLQELQPPVQQVISHCRVNYRQLVAADKPGLVLDIAALSENDLAFYCLDVTRAGHNGVLAALLLRALFNGLLQEQLAHQNQRLPELGALLKQVNHLLRQANLPGQFPLLVGYYHRELKNLILVSAGLNATLNTGEHQVQISNGVPLGTLGNAYLNQLSQRCDAWQCQIWGTGGRLRLMLSAE
chain 2: MKNLIAELLFKLAQKEEESKELCAQVEALEIIVTAMLRNMAQNDQQRLIDQVEGALYEVKPDASIPDDDTELLRDYVKKLLKHPRQ

Variants of: B1
Experiment: pull-down
Conditions: with His6-IraP [E. coli]; lysate of cells co-expressing RssB and His6-IraP applied to Ni-NTA beads; eluted with imidazole; n = 3; parent: 1; read off a plot

Row | Variant | ratio to parent
1 | chain 1 D58A | 0.6
2 | chain 1 D58P | 0.36

— publication PMC4428439
